# Measured values: article PMC11250029
# Molecular target: lavanducyanin halogenase (LvcH) (Streptomyces sp. CNZ-289)
# Assay: SEC
substance,measurement,value
lavanducyanin halogenase (LvcH) (enzyme),stoichiometry N,2
